From the DeepSol protein solubility set

Experiment: soluble on expression in E. coli; label from the status in PepcDB or PDB records

Sequence	soluble on expression in E. coli
MSLTKDDQKELGKTLWAIADQLRGSMNADDFRDYMLSFLFLRYLSDNYEAAAKKELGSDYPDAKTIGNSDKTPLSVWYASNPGDVAAFEQQMRRKAHYVIKPKYLWGNIVNLAKKQNHDLLDTLQQGFKHIEEDSFESEFQGLFSEINLASDKLGRKYDDRNAKLCSIISEIARGMALSAKTDSLGDAYEYLIGQFAAGSGKKAGEFYTPQEISNILSAIVTLDSQEPKTGPRGKLDSVFDFACGSGSLLLNIRNRMTNSGGSIGKIYGQEYNVTTYNLARMNMLLHGVKDTEFEIYHGDTLKNDWDWLRETNPAKKPRFDAVVANPPFSYRWEPGEAMAQDARFKNHGVAPKSAADFAFLLHGLQYLKDDGVMAIILPHGVLFRGGKEADIRRKLLDDGHIDTVIGLPANLFYSTGIPVCILVLKKCKKPDDVLFINAAGHFAKGKRQNQLTDEHIQRIVNTYQNRNKQDRYSRCVSMKEIADKDYNLNISRYVSTAEADKEIVLEAVHADLTAIESRLEESKKRHNAFLVELGLKPLPEGHHHHHH	soluble
ASELNIYSARHYNADFEIIKKFEEKTGIKVNHTQAKASELIKRLSLEGSNSPADIFITADISNLTEAKNLGLLSPVSSKYLEEFIPAHLRDKDKEWFAITKRARIIAYNKNTNIDISKMKNYEDLAKAEFKGEIVMRSATAPYSKTLLASIIANDGNKEAKAWAKGVLENLATNPKGGDRDQARQVFAGEAKFAVMNTYYIGLLKNSKNPKDVEVGNSLGIIFPNQDNRGTHINISGIAMTKSSKNQDAAKKFMEFMLSPEIQKILTDSNYEFPIRNDVELSQTVKDFGTFKEDQIPVSKIAENIKEAVKIYDEVGFRIEGR	soluble
QDVGQKSIFSITPEFDEVRSISNVGSNGDISSHGNTIYFTRHTLNSPQDIFSIDNHGDDLTQLTHINKDKLGDVKFADYQQFNFKGWNDETVHGYWLKPANFEAGKKYPIAFLVHGGPQGSFGNMFHYRWNAQLWAAQGYGVVMVDFHGSTGYGQEFTHSISRDWGGKPLEDLQKGLDFIVKEQPWLDGDNACALGASYGGYMMNWIAGNWPTRFKCLINHAGLYDMPSFYQSTEELWFPEYDMGGPSWGKENGSAKGKVSPDYTKFNPSAYVNNWQTPMLVIQGELDYRVPYAQSLGAFTTLQRKGIDSRLVMFPDEDHHIRKPDNLVVWYDEVFKWLEKYTK	not soluble
MPTDKEGDFIDPKEQEESLENIFSSLNDFQEKTDANAQKNEQKNEQEEEQRRLKEQQRLRKNQKNQEMLKGLQQNLNQFAQKLESVKNKTLDLQIPKQDGVDEKAYQEWYAQIYQILYKGWKGVFYHKASVSALIMIAKDGEFDYTILSYSDFKDYNKSVMTLLNDLKKVDFPPYPGGSMISIQVNFTTKEEQ	not soluble
MLNEQIFSNARVVTAEQVFIGTVVVRDGLIAEVQTGRSQLSQAQDLEGDFLLPGLVELHTDNLEKHLSPRPGVDWPSMSAVISHDAQIVAAGITTVFDALSIGDINPKGKRMQQLPAMLQAIADANEAGLTRADHLLHLRCEVSHPDTLNVFRDLVGQPLVQLVSVMEHAPGQRQFALESKYREYYMGKYHMSHEEMDHFIVEQVANSTEYADRYRRAIVELCLARGLSIASHDDATMAHVEESAGFGMNIAEFPTTLEAAQGCRQLGMSVLMGAPNIVRGGSHSGNVAAASLARHGLLDILSSDYYPASLLQAAFMLAEQDNDCELPHAINMVSRTPAIAAGLADRGEIRVGLRADLIQARNHAGLPVIDKVWRQGKRVF	not soluble
MAELDIGQHCQVQHCRQRDFLPFVCDGCSGIFCLEHRSKDSHGCSEVNVVKERPKTDEHKSY	soluble
MSLKVDQKEEQVQKRLEALDKLTKTLAIVEQYYVDDQNISDLVDKSLSGLLSNLDAHSSFLNEKDFNDMKIQTNGEFGGLGITVGMKDGALTVVSPIEGTPADKAGIKSGDIILKINDEATLGINLNDAVDKMRGKPKTQITLTIFRKGATKPFDVTLTREIIKIESVYAKMIENENILYLRVTNFDKNVVDVASKELKKYPNVKGVILDLRNNPGGLLNQAIGLVNLFVDKGVIVSQKGRIASENQEYKADPKNKISNASLVVLVNGGSASASEIVSGALQDLKRGVIVGENTFGKGSVQQIIPINKTEALRLTIARYYLPSGRTIQAVGVKPDIEVFPGKVNTQEGHHHHHH	soluble
MGSDKIHHHHHHMDTELARTFLTVAATGNFVAAASRLHVTQSTVSARIQTLETTLGARLFQRGRNGAELTASGKRFLRHAKHLVRTVEQALHDVGLPQGFHDVLTLSGRIALWEGFLPHWVAWMREAAPDVSLRLEIGFEADIMQGLIEGTTDIGVMYTPTSRPGLVVEPLFDENLMLVTSDLARGWPEEGYIHIDWGPEFHAQFSDHFPDAPPPTVVANIGWLGVQQLLTYGGSGYFPQRLVRQLIEDGRLWRVPDSPQFKLTAWMVFPREGSATLKSALDGLRTLARDEQARL	not soluble
MGSDKIHHHHHHMSKFHELTVASVTRETRDAVAVTFAVPEDLADTYRYVQGQHLTLRAGIGGEDVRRSYSICSAVQDRRLRVAIKRVDGGMFSNWANDALQPGMTLEVMPPSGHFHVPLSDTHSKHYVAFAAGSGITPMLSIIKTTLMTEPDSRFTLFYGNRASSSVLFKEELEDLKDTYLERFNLVFILSREQLDIDLFNGRIDGEKVRALLRHWVRPQDIDVAFICGPHSMMEEVSQALQENGVDKARIKRELFATSIPAARPAAHAHKQLGQQQCEVTVIQDGRTRQFTLEKNKETILDAALAQGIELPYSCKGGVCSTCRCKRIEGEVDMDVNFALEDYEVARGFILSCQSYAVTDKLVIDFDQET	not soluble
KTTVIPESLKILGWVEFTRLEPWGIKTPARIDTGANTSSMSARDINVFKRNGKTWVRFTFDFKKGTAERSIEIERPLVRMVKIKQHDGPSQERPVISMEICLADEIREAEFDLIDRRALNYPVLLGRKALAGYVVVDPARAYLTKAV	not soluble
MGSDKIHHHHHHMPTVLALETSCDESAAAVLRLNNGCLQVIASRIASQVEKHAQWGGVVPEVASRLHVEALPHLVEEVLQEAGQSMARFDAVAATVTPGLAGALMVGSVTGRSLAALHALPFFGIHHLEGHLASVRLAEHPPRPPYLVLLVSGGHTELIRVGAESEMVRLGRSHDDAAGEAFDKVGRLLGLAYPGGPAIQALAATGDSGRFSLPKGRVSKPGGGFHPYDFSFSGLKTAMLRLVQALSEADEDLPRADLAASFEQVVADVLVERSLLCANDQGLKTVVMVGGVAANRRLRELMSKRGQEQGIEVHTAPLRYCTDNAAMIGAAALQRLVSGVNGSSLELGVAARWPLDKTEVLYHSPPPF	not soluble
MSLKLEAYRTLHCDAGWRRFSFLKLIAEDGTTGISEYNECYGSPGLTGVIEGVLEWIIGKNPFSHEKLSAELYARTRQAHGGIAQQAIAAVENALVDLKARSLGVPVYELLGGAVREELPLYWSHCGSYRLPRTAEMLGVPPITSLDDLVSLGKEVREKGFSALKTNIFLFEEQPHMHQPGFARSEGWPALNPERRIINSLKEQLAAFREGAGPELEILLDLNFNYRTEGFLTVCRALDDLGLGWFEMDLYDPAALARIRHALKTPVASCESLFGLRGFRPFFENQSMDVAIVDVPWNGIWQAMKIAGLAESFEVNVAPHNFYGHLSTLMSAHFCAAIPNFRIMEIDIDDVPWKDELVTKSPLIRDGILKIPEGIGWGTELNEEAIAAHPVKNTGDDRKYDRGMGEGHHHHHH	soluble
MTLYRLHEADLEIPDAWQDQSINIFKLPASGPAREASFVISRDASQGDAPFADYVARQLENAEKQLPGFKLHKRWDINIHGHAAVLLDYQWQREGRDLMLRQVFIERRPAVLITTLTTTPADLPHHEPAWKQAMQTLVPRPTPS	soluble
MALPKFELLSLADNTVGWGPLASSSSADEPVPFQQFNKADRIGRVADWIGVDRFYRRGNERYNERVYGSAANAGSQFDYIHGMDEHNFQLVDTSKPMARNPQRNFRVRQMHLRKMMQKENEKREMVNQSTNLRMKRSIAKEQQRAFKMWQRRGGNARQGQRGQGGRFGGDRPKERLPSVQVRPEWVVLEEMNLSAFSKLALPNIPGGDDIGDHQYGSLQYYDKTIDRVSVKNSIPLQRCAGVFYNVTTTEDPVIQELAQGGAGNVFGTDIILATLMTAPRSVYSWDIVAYRVGDKLFFDKRNTRDILNPVETLTVSETSAEPPSFDGNGINNAKDLATEAFYINQNFRRQVVKRNDAGFTFKNARAPFEDEETGESGTAYKYRKWNLGNGVDGKPVELVCRTELDGVIHGLGNETQTLTIKAFNEWDSTQSGGVDWRTKLDVQKGAVMATEIKNNSAKVAKWTLQALLAGSDTMKLGYVSRNNARSTQNHSILLTQYVKPTEFASNIALNMDNCWGILRCVIDSCMKQKPGKYLLMKDPQSPVIRLYSLPEGTFESERESSDEENSDDDQ	not soluble
MSLAVDTSGEFMRHLYIEEGRTVCASATSRNRRPTSESPHSDDVVVVEGMLRGRPETRVHAMFDGFQGRHSAMWLAQNVMNYLNDLRDVNEEEITRQFERMDGDLRAANLPGGSSALIIFVRYEKKPTEARVVGRQIVPEGAKEFTSVAEALGGPLMPVVAMNFRRDPRAAKGIYTIHVASLGNSRCVLKSGRTAIHLSTPHTASSHKERHRVQAAGGVFTTVNGELLLGGVVPMTRAFGSFDFKKGGQGKLQQDLVSAVPDVTTFFAYPGDDIVAGTAGAFAHFRSHAAIAAAIALYPVSPETVLDAAKAMVVNAKRRKVTKNISTFVRHLPESRTRSQKMLEGTSGENGEEDFSIDRTNELTQALQAGFFSFLLYYEGHHHHHH	soluble
MYSDKVFDHFQNPRNVGKIEDADGVGTVGNPVCGDLMTIYIKVKDNRIEDIKFQTFGCAAAIATSSMATEMAKGKTIEEALKITRDAVAEALGGLPKQKMHCSNLAADALRRAIVDYFRKNGKIDKIKELGLEKELEKMEKGEMDDHGEYCEA	not soluble
DPTAQSLQDISDEQVLVLFEQMLVDMNLNEEKQQPLREKDIVIKREMVSQYLHTSKAGMNQKESSRSAMMYIQELRSGLRDMHLLSCLESLRVSLTSHPVSWVQTFGAEGLASLLDILKRLHDEKEETSGNYDSRNQHEIIRCLKAFMNNKFGIKTMLETEEGILLLVRAMDPAVPNMMIDAAKLLSALCILPQPEDMNERVLEAMTERAEMDEVERFQPLLDGLKSGTSIALKVGCLQLINALITPAEELDFRVHIRSELMRLGLHQVLQELREIENEDMKVQLCVFDEQGDEDFFDLKGRLDDIRMEMDDFGEVFQIILNTVKDSKAEPHFLSILQHLLLVRNDYEARPQYYKLIEECVSQIVLHKNGTDPDFKCRHLQID	soluble
MKSLIDHFDIASAKVQSLVQETLHHADDGELYLEYTESETLLFDNRQLKNGSFHQDMGFGLRVVAGEATGYAHSSELSAAALKRASEAAKTVTYKNHAGPYSVAPQQTNKKLYQPHNPLNAPSFEEKSALLQKIDDYLRAKNDKLHQVTVSLSGSLQHVEILRADGNLVRDIRPLVRLSISVVAAEGNRRENGFYGCGGRQAFSQFISEENWKKAADEALRMALINLEAEAAPAGTFDVVLANGWPGVMLHEAVGHGLEGDFNRKKTSAFSGLLGQQVAAKGVTVVDDGTIPKCRGSLTIDDEGTPSGYNILIENGKLVGFMQDRLNARLMGVNPTGNGRRESYAYAPMPRMTNTIMLGGDKTPEEILSSLKSGIYAVSFGGGQVDITSGKFVFECTEAYRVENGKIVAPIKGATLIGNGPEAMKRITMIGNDSKLDNGIGTCGKAGQSVPVGVGQPHLRINNMTIGGTELT	not soluble
